This sample holds only a part of the variants without activity.
Legend:
[1] = tested on: biotinyl-Val-oxazolone; assay: self-aminoacylation, catalytic enhancement (BVO) (fold over background); higher = more active; k-Seq, kA / k0A0; sequences stand for … in GGGAAUGGAUCCACAUCUACGAAUUC…UUCACUGCAGACUUGACGAAGCUG
How it was run: (§1)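 Mutagenized RNA pools (0.43 μM; 21-nt variable region) were treated with 2–1250 μM of each biotinyl-aminoacyl-oxazolone. Conditions were 50 μL HEPES/NaCl/KCl/MgCl2/CaCl2 buffer, 5% acetonitrile, pH 6.9–7.0, room temperature, 90 minutes. Catalytic enhancement, the median kA relative to the uncatalyzed rate, was derived from streptavidin capture, qPCR and Illumina sequencing.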

[2] = tested on: biotinyl-Trp-oxazolone; assay: self-aminoacylation, catalytic enhancement (BWO) (fold over background); higher = more active; k-Seq, kA / k0A0; sequences stand for … in GGGAAUGGAUCCACAUCUACGAAUUC…UUCACUGCAGACUUGACGAAGCUG
How it was run: as §1

[3] = tested on: biotinyl-Leu-oxazolone; assay: self-aminoacylation, catalytic enhancement (BLO) (fold over background); higher = more active; k-Seq, kA / k0A0; sequences stand for … in GGGAAUGGAUCCACAUCUACGAAUUC…UUCACUGCAGACUUGACGAAGCUG
How it was run: as §1

[4] = tested on: biotinyl-Ile-oxazolone; assay: self-aminoacylation, catalytic enhancement (BIO) (fold over background); higher = more active; k-Seq, kA / k0A0; sequences stand for … in GGGAAUGGAUCCACAUCUACGAAUUC…UUCACUGCAGACUUGACGAAGCUG
How it was run: as §1

[5] = tested on: biotinyl-Phe-oxazolone; assay: self-aminoacylation, catalytic enhancement (BFO) (fold over background); higher = more active; k-Seq, kA / k0A0; sequences stand for … in GGGAAUGGAUCCACAUCUACGAAUUC…UUCACUGCAGACUUGACGAAGCUG
How it was run: as §1

[6] = tested on: biotinyl-Met-oxazolone; assay: self-aminoacylation, catalytic enhancement (BMO) (fold over background); higher = more active; k-Seq, kA / k0A0; sequences stand for … in GGGAAUGGAUCCACAUCUACGAAUUC…UUCACUGCAGACUUGACGAAGCUG
How it was run: as §1

| Sequence | self-aminoacylation [1] | self-aminoacylation [2] | self-aminoacylation [3] | self-aminoacylation [4] | self-aminoacylation [5] | self-aminoacylation [6] |
| --- | --- | --- | --- | --- | --- | --- |
| CUACUUCAAUCAAUCGGUUUG [Fam1A.1 aminoacylation ribozyme variant] | 0.96 | 15.1 | 1.21 | 0.895 | 26.6 | 0.886 |
| CUACUUCAAUCACUCGGUCUG [Fam1A.1 aminoacylation ribozyme variant] | 0.835 | 0.688 | 0.746 | 0.866 | 0.649 | 0.68 |
| CUACUUCAAUCUAUCGGUCUG [Fam1A.1 aminoacylation ribozyme variant] | 0.907 | 0.936 | 0.836 | 0.888 | 1.28 | 0.902 |
| CUACUUCACACAAUCGGCCUG [Fam1A.1 aminoacylation ribozyme variant] | 1.86 | 1.72 | 1.75 | 1.69 | 0.896 | 1.75 |
| CUACUUCACACAAUCGGUCUA [Fam1A.1 aminoacylation ribozyme variant] | 0.834 | 0.777 | 0.802 | 0.72 | 0.822 | 0.626 |
| CUACUUCACACAAUCGUUCUG [Fam1A.1 aminoacylation ribozyme variant] | 0.61 | 0.392 | 0.484 | 0.649 | 0.66 | 0.477 |
| CUACUUCACGCAAUCGGUCUG [Fam1A.1 aminoacylation ribozyme variant] | 0.908 | 0.819 | 0.711 | 0.837 | 0.929 | 0.912 |
| CUACUUCAGACAAUCGGUCUC [Fam1A.1 aminoacylation ribozyme variant] | 0.977 | 0.825 | 0.895 | 0.936 | 1.09 | 0.857 |
| CUACUUCAGACAAUCGGUCUG [Fam1A.1 aminoacylation ribozyme variant] | 0.822 | 0.857 | 0.807 | 0.782 | 1.19 | 0.758 |
| CUACUUCAGACACUCGGUCUG [Fam1A.1 aminoacylation ribozyme variant] | 1.54 | 1.03 | 1.52 | 1.2 | 1.77 | 1.49 |
| CUACUUCAGACCAUCGGUCUG [Fam1A.1 aminoacylation ribozyme variant] | 1.07 | 0.856 | 1.14 | 1.1 | 1.06 | 1.25 |
| CUACUUCAGCCAAUCGGUCUG [Fam1A.1 aminoacylation ribozyme variant] | 0.673 | 0.425 | 0.842 | 0.691 | 0.64 | 0.713 |
| CUACUUCAUAAAAUCGGUCUG [Fam1A.1 aminoacylation ribozyme variant] | 0.641 | 0.389 | 0.622 | 0.656 | 0.567 | 0.699 |
| CUACUUCAUACAAUCGAUCUG [Fam1A.1 aminoacylation ribozyme variant] | 0.806 | 0.601 | 0.505 | 0.657 | 0.752 | 0.653 |
| CUACUUCAUACAAUCGGUCUU [Fam1A.1 aminoacylation ribozyme variant] | 0.972 | 0.491 | 0.844 | 1.01 | 0.932 | 0.724 |
| CUACUUCAUACAAUCUGUCUG [Fam1A.1 aminoacylation ribozyme variant] | 0.682 | 0.424 | 0.566 | 0.668 | 0.66 | 0.64 |
| CUACUUCAUACAAUUGGUCUG [Fam1A.1 aminoacylation ribozyme variant] | 0.849 | 0.453 | 0.731 | 0.743 | 0.656 | 0.755 |
| CUACUUCAUACAGUCGGUCUG [Fam1A.1 aminoacylation ribozyme variant] | 0.67 | 0.282 | 0.556 | 0.574 | 0.496 | 0.52 |
| CUACUUCAUAGAAUCGGUCUG [Fam1A.1 aminoacylation ribozyme variant] | 0.749 | 0.698 | 0.837 | 0.783 | 0.644 | 0.75 |
| CUACUUCCAACAAUCGGUGUG [Fam1A.1 aminoacylation ribozyme variant] | 1.03 | 1.09 | 1.28 | 0.97 | 0.789 | 1.06 |
| CUACUUCCAACAGUCGGUCUG [Fam1A.1 aminoacylation ribozyme variant] | 0.851 | 0.76 | 0.971 | 0.911 | 0.496 | 1.06 |
| CUACUUCCAACAUUCGGUCUG [Fam1A.1 aminoacylation ribozyme variant] | 1.39 | 1.16 | 1.54 | 1.17 | 1.68 | 1.07 |
| CUACUUCCAGCAAUCGGUCUG [Fam1A.1 aminoacylation ribozyme variant] | 0.961 | 0.458 | 1.04 | 0.87 | 0.605 | 0.77 |
